This experiment deals with Vlp15/16 of B. miyamotoi HT31 (B. miyamotoi HT31). As to the kind of experiment: ELISA; Vlp15/16 (5 µg/ml) immobilised, increasing amounts of plasminogen (0 to 20 µM); non-linear regression, one-site specific binding model.

By Kd is commonly meant the constant that tells how readily two partners part at equilibrium. A high value points to lower affinity. Human glu-plasminogen (natural protein) yielded a Kd of 354 nM. That is a sub-micromolar value.

The values are drawn from article PMC7925540.
